Laboratory results published in patent US20190314526A1.
Read-outs that look alike come from different tables or passages of the source.

Key:
[1] = biological target: AAV-2 with a wild-type capsid (rAAV-2 virion) (AAV-2) (UniProt P03135); assay: cell-based or functional assay
[2] = biological target: AAV-2 capsid mutant E411A (rAAV-2 virion) (AAV-2) (UniProt P03135); assay: cell-based or functional assay
[3] = biological target: AAV-2 capsid mutant Q248A (rAAV-2 virion) (AAV-2) (UniProt P03135); assay: cell-based or functional assay
[4] = biological target: AAV-2 capsid mutant V571K (rAAV-2 virion) (AAV-2) (UniProt P03135); assay: cell-based or functional assay
[5] = biological target: AAV-2 capsid mutant K407A (rAAV-2 virion) (AAV-2) (UniProt P03135); assay: cell-based or functional assay
[6] = biological target: AAV-2 capsid mutant K569A (rAAV-2 virion) (AAV-2) (UniProt P03135); assay: cell-based or functional assay
[7] = biological target: AAV-2 capsid mutant V571A (rAAV-2 virion) (AAV-2) (UniProt P03135); assay: cell-based or functional assay
[8] = biological target: AAV-2 capsid mutant Q126A (rAAV-2 virion) (AAV-2) (UniProt P03135); assay: cell-based or functional assay
[9] = biological target: AAV-2 capsid mutant E437A (rAAV-2 virion) (AAV-2) (UniProt P03135); assay: cell-based or functional assay
[10] = biological target: AAV-2 capsid mutant E394K (rAAV-2 virion) (AAV-2) (UniProt P03135); assay: cell-based or functional assay
[11] = biological target: AAV-2 capsid mutant S247A (rAAV-2 virion) (AAV-2) (UniProt P03135); assay: cell-based or functional assay
[12] = biological target: AAV-2 capsid mutant W365A (rAAV-2 virion) (AAV-2) (UniProt P03135); assay: cell-based or functional assay
[13] = biological target: AAV-2 capsid mutant K395A (rAAV-2 virion) (AAV-2) (UniProt P03135); assay: cell-based or functional assay
[14] = biological target: AAV-2 capsid mutant S127A (rAAV-2 virion) (AAV-2) (UniProt P03135); assay: cell-based or functional assay
[15] = biological target: AAV-2 capsid mutant G449A (rAAV-2 virion) (AAV-2) (UniProt P03135); assay: all-A20 ELISA, against wild type
[16] = biological target: AAV-2 capsid mutant S130T (rAAV-2 virion) (AAV-2) (UniProt P03135); assay: all-A20 ELISA, against wild type
[17] = biological target: AAV-2 capsid mutant T413K (rAAV-2 virion) (AAV-2) (UniProt P03135); assay: all-A20 ELISA, against wild type
[18] = biological target: AAV-2 capsid mutant H134Q (rAAV-2 virion) (AAV-2) (UniProt P03135); assay: all-A20 ELISA, against wild type
[19] = biological target: AAV-2 capsid mutant G246A (rAAV-2 virion) (AAV-2) (UniProt P03135); assay: all-A20 ELISA, against wild type
[20] = biological target: AAV-2 capsid mutant H372Q (rAAV-2 virion) (AAV-2) (UniProt P03135); assay: all-A20 ELISA, against wild type
[21] = biological target: AAV-2 capsid mutant V571K (rAAV-2 virion) (AAV-2) (UniProt P03135); assay: all-A20 ELISA, against wild type
[22] = biological target: AAV-2 capsid mutant N568K (rAAV-2 virion) (AAV-2) (UniProt P03135); assay: all-A20 ELISA, against wild type
[23] = biological target: AAV-2 capsid mutant H372K (rAAV-2 virion) (AAV-2) (UniProt P03135); assay: all-A20 ELISA, against wild type
[24] = biological target: AAV-2 capsid mutant N568A (rAAV-2 virion) (AAV-2) (UniProt P03135); assay: all-A20 ELISA, against wild type
[25] = biological target: AAV-2 capsid mutant R334A/G449A/N568A (rAAV-2 virion) (AAV-2) (UniProt P03135); assay: all-A20 ELISA, against wild type
[26] = biological target: AAV-2 capsid mutant S130A (rAAV-2 virion) (AAV-2) (UniProt P03135); assay: all-A20 ELISA, against wild type
[27] = biological target: AAV-2 capsid mutant N360H (rAAV-2 virion) (AAV-2) (UniProt P03135); assay: all-A20 ELISA, against wild type
[28] = biological target: AAV-2 capsid mutant E411A/T413A (rAAV-2 virion) (AAV-2) (UniProt P03135); assay: all-A20 ELISA, against wild type
[29] = biological target: AAV-2 capsid mutant D357E (rAAV-2 virion) (AAV-2) (UniProt P03135); assay: all-A20 ELISA, against wild type
[30] = biological target: AAV-2 capsid mutant R334A (rAAV-2 virion) (AAV-2) (UniProt P03135); assay: all-A20 ELISA, against wild type
[31] = biological target: AAV-2 capsid mutant R334A/N568A (rAAV-2 virion) (AAV-2) (UniProt P03135); assay: all-A20 ELISA, against wild type
[32] = biological target: AAV-2 capsid mutant E393D (rAAV-2 virion) (AAV-2) (UniProt P03135); assay: all-A20 ELISA, against wild type
[33] = biological target: AAV-2 capsid mutant D132N (rAAV-2 virion) (AAV-2) (UniProt P03135); assay: all-A20 ELISA, against wild type
[34] = biological target: AAV-2 capsid mutant N568A/V571A (rAAV-2 virion) (AAV-2) (UniProt P03135); assay: all-A20 ELISA, against wild type
[35] = biological target: AAV-2 capsid mutant R334A/G449A (rAAV-2 virion) (AAV-2) (UniProt P03135); assay: all-A20 ELISA, against wild type
[36] = biological target: AAV-2 capsid mutant E411A/T413A/G449A/N450A (rAAV-2 virion) (AAV-2) (UniProt P03135); assay: all-A20 ELISA, against wild type
[37] = biological target: AAV-2 capsid mutant G449A/N568A (rAAV-2 virion) (AAV-2) (UniProt P03135); assay: all-A20 ELISA, against wild type
[38] = biological target: AAV-2 with a wild-type capsid (rAAV-2 virion) (AAV-2) (UniProt P03135); assay: all-A20 ELISA, virus needed for half maximal OD, against wild type
[39] = biological target: primate AAV-8 capsid (rAAV virion) (primate AAV-8); assay: cell-based or functional assay
[40] = biological target: caprine (goat) AAV capsid (caprine rAAV virion) (caprine AAV); assay: cell-based or functional assay
[41] = biological target: primate AAV-8 capsid (rAAV virion) (primate AAV-8); assay: cell-based or functional assay; remark: listed apart in the source
[42] = biological target: primate AAV-5 capsid (rAAV virion) (primate AAV-5); assay: cell-based or functional assay
[43] = biological target: primate AAV-1 capsid (rAAV virion) (primate AAV-1); assay: cell-based or functional assay
[44] = biological target: bovine AAV-C1 capsid (AAV-C1-LacZ vector) (bovine AAV); assay: cell-based or functional assay
[45] = biological target: primate AAV-6 capsid (rAAV virion) (primate AAV-6); assay: cell-based or functional assay
[46] = biological target: primate AAV-4 capsid (rAAV virion) (primate AAV-4); assay: cell-based or functional assay
[47] = biological target: caprine (goat) AAV capsid (caprine rAAV virion) (caprine AAV); assay: cell-based or functional assay; remark: listed apart in the source
[48] = biological target: primate AAV-3B capsid (rAAV virion) (primate AAV-3B); assay: cell-based or functional assay

murine monoclonal antibody A20 (protein A-purified anti-AAV-2 mouse monoclonal antibody)
% neutralized at dilutions of A20 greater than 1:1000 [1]: < 3% | Fold decrease in neutralizing titer [1]: 1 fold | neutralizing titer of A20 (reciprocal dilution) [1]: 509 | Fold decrease in A20 titer [2]: 2.7 fold | Fold decrease in neutralizing titer [3]: 5.7 fold | neutralizing titer of A20 (reciprocal dilution) [3]: 89 | Fold decrease in A20 titer [4]: 217 fold | Fold decrease in A20 titer [5]: 1.6 fold | Fold decrease in A20 titer [6]: 1.7 fold | Fold decrease in A20 titer [7]: 1.4 fold | Fold decrease in neutralizing titer [8]: 2.5 fold | neutralizing titer of A20 (reciprocal dilution) [8]: 203 | Fold decrease in A20 titer [9]: 0.8 fold | Fold decrease in A20 titer [10]: 0.9 fold | Fold decrease in neutralizing titer [11]: 2.8 fold | neutralizing titer of A20 (reciprocal dilution) [11]: 180 | Fold decrease in A20 titer [12]: 0.5 fold | Fold decrease in A20 titer [13]: 0.9 fold | Fold decrease in neutralizing titer [14]: 57 fold | neutralizing titer of A20 (reciprocal dilution) [14]: 9 | Fold decrease in binding of murine A20 [15]: 1 fold | Fold decrease in binding of murine A20 [16]: 1 fold | Fold decrease in binding of murine A20 [17]: 1 fold | Fold decrease in binding of murine A20 [18]: 1 fold | Fold decrease in binding of murine A20 [19]: 1 fold | Fold decrease in binding of murine A20 [20]: 1 fold | Fold decrease in binding of murine A20 [21]: 10 fold | Fold decrease in binding of murine A20 [22]: 1 fold | Fold decrease in binding of murine A20 [23]: 1 fold | Fold decrease in binding of murine A20 [24]: 1 fold | Fold decrease in binding of murine A20 [25]: 1 fold | Fold decrease in binding of murine A20 [26]: 1 fold | Fold decrease in binding of murine A20 [27]: 1 fold | Fold decrease in binding of murine A20 [28]: 1 fold | Fold decrease in binding of murine A20 [29]: 1 fold | Fold decrease in binding of murine A20 [30]: 1 fold | Fold decrease in binding of murine A20 [31]: 1 fold | Fold decrease in binding of murine A20 [32]: 1 fold | Fold decrease in binding of murine A20 [33]: 1 fold | Fold decrease in binding of murine A20 [34]: 1 fold | Fold decrease in binding of murine A20 [35]: 1 fold | Fold decrease in binding of murine A20 [36]: 1 fold | Fold decrease in binding of murine A20 [37]: 1 fold | Fold decrease in binding of murine A20 [38]: 1 fold

purified pooled human IgG IVIG-8 (Panglobulin Lot #1838-00351, ZLB Bioplasma AG)
Lowest concentration of IVIG showing >50% neutralization of the virus [39]: 10 mg/mL | Lowest concentration of IVIG showing >50% neutralization of the virus [40]: 40 mg/mL | % blue cells compared to the control at IVIg 8 0.01 ug/ul [1]: 100% | % blue cells compared to the control at IVIg 8 0.1 ug/ul [1]: 100% | % blue cells compared to the control at IVIg 8 10 ug/ul [1]: 2% | % blue cells compared to the control at IVIg 8 50 ug/ul [1]: 0% | Lowest concentration of IVIG showing >50% neutralization of the virus [1]: 10 mg/mL | lowest concentration of IVIG showing more than 50% neutralization [1]: 0.2 mg/mL | % blue cells compared to the control at IVIg 8 0.01 ug/ul [41]: 90% | % blue cells compared to the control at IVIg 8 0.1 ug/ul [41]: 88% | % blue cells compared to the control at IVIg 8 1 ug/ul [41]: 77% | % blue cells compared to the control at IVIg 8 50 ug/ul [41]: 0% | % of control transduction at IVIg 8 0.1 ug/ul [41]: 105% | % of control transduction at IVIg 8 10 ug/ul [41]: 44% | % of control transduction at IVIg 8 20 ug/ul [41]: 11% | % of control transduction at IVIg 8 40 ug/ul [41]: 0% | % of control transduction at IVIg 8 50 ug/ul [41]: 0% | Lowest concentration of IVIG showing >50% neutralization of the virus [41]: 50 mg/mL | % blue cells compared to the control at IVIg 8 0.1 ug/ul [42]: 17% | % blue cells compared to the control at IVIg 8 1 ug/ul [42]: 1% | % blue cells compared to the control at IVIg 8 10 ug/ul [42]: 1% | % blue cells compared to the control at IVIg 8 50 ug/ul [42]: 0% | Lowest concentration of IVIG showing >50% neutralization of the virus [42]: 0.1 mg/mL | % blue cells compared to the control at IVIg 8 0.01 ug/ul [43]: 100% | % blue cells compared to the control at IVIg 8 0.1 ug/ul [43]: 86% | % blue cells compared to the control at IVIg 8 10 ug/ul [43]: 14% | % blue cells compared to the control at IVIg 8 50 ug/ul [43]: 0% | Lowest concentration of IVIG showing >50% neutralization of the virus [43]: 10 mg/mL | fold more resistant to neutralization by human IVIG than AAV-2 [44]: 16 fold | lowest concentration of IVIG showing more than 50% neutralization [44]: 3.25 mg/mL | % blue cells compared to the control at IVIg 8 0.01 ug/ul [45]: 100% | % blue cells compared to the control at IVIg 8 0.1 ug/ul [45]: 81% | % blue cells compared to the control at IVIg 8 10 ug/ul [45]: 14% | % blue cells compared to the control at IVIg 8 50 ug/ul [45]: 0% | Lowest concentration of IVIG showing >50% neutralization of the virus [45]: 10 mg/mL | % blue cells compared to the control at IVIg 8 0.01 ug/ul [46]: 100% | % blue cells compared to the control at IVIg 8 0.1 ug/ul [46]: 100% | % blue cells compared to the control at IVIg 8 1 ug/ul [46]: 100% | % blue cells compared to the control at IVIg 8 50 ug/ul [46]: 49% | Lowest concentration of IVIG showing >50% neutralization of the virus [46]: 50 mg/mL | % of control transduction at IVIg 8 0.1 ug/ul [47]: 120% | % of control transduction at IVIg 8 1 ug/ul [47]: 93% | % of control transduction at IVIg 8 10 ug/ul [47]: 80% | % of control transduction at IVIg 8 40 ug/ul [47]: 14% | % of control transduction at IVIg 8 50 ug/ul [47]: 8% | Lowest concentration of IVIG showing >50% neutralization of the virus [47]: 50 mg/mL | % blue cells compared to the control at IVIg 8 0.01 ug/ul [48]: 92% | % blue cells compared to the control at IVIg 8 1 ug/ul [48]: 45% | % blue cells compared to the control at IVIg 8 10 ug/ul [48]: 0% | % blue cells compared to the control at IVIg 8 50 ug/ul [48]: 0% | Lowest concentration of IVIG showing >50% neutralization of the virus [48]: 1 mg/mL
